Laboratory results taken from patent US20250152742A1, “COMPOSITIONS AND METHODS FOR NEUROLOGICAL DISEASES” (Trames Bio, Inc., priority 2022, published 2025).
Substitutions are numbered along the chain they refer to. Names may count otherwise.

B1: CODA1157: engineered receptor: Q139E, S172D in SEQ ID NO: 33 (protein)
chain: MRCSPGGVWLALAASLLHVSLQGEFQRKLYKELVKNYNPLERPVANDSQPLTVYFSLSLLQIMDVDEKNQVLTTNIWLQMSWTDHYLQWNVSEYPGVKTVRFPDGQIWKPDILLYNSADERFDATFHTNVLVNSSGHCEYLPPGIFKSSCPMDLKNFPMDVQTCKLKFGSWDYGGWSLDLQMQEADISGYIPNGEWDLVGIPGKRSERFYECCKEPYPDVTFTVTMRRRMGYYLIQMYIPSLLIVILSWISFWINMDAAPARVGLGITTVLTMTTQSSGSRASLPKVSYVKAIDIWMAVCLLFVFSALLEYAAVNFVSRQHKELLRFRRKRRHHKSPMLNLFQEDEAGEGRFNFSAYGMGPACLQAKDGISVKGANNSNTTNPPPAPSKSPEEMRKLFIQRAKKIDKISRIGFPMAFLIFNMFYWIIYKIVRREDVHNQ
modifications: synthetic sequence of chimeric LGIC
B2: CODA1173: engineered receptor: S172D, Y210W in SEQ ID NO: 33 (protein)
chain: B1 chain with E139Q, Y210W
modifications: synthetic sequence of chimeric LGIC

System: engineered chimeric receptor SEQ ID NO: 33 and its mutants (human α7-nAChR ligand binding domain / human GlyRα1 ion pore domain) in Lenti-X 293T cells
Assay: YFP fluorescence quenching anion reporter plate reader assay (percent quench, EC50)
Format: cell-based
Conditions: for YFP fluorescence quenching using CNL001 (percent quench): receptor named in row; for YFP fluorescence quenching using Varenicline, 3 nM var: ligand Varenicline 3 nM; for YFP fluorescence quenching using Varenicline, 30 nM var: ligand Varenicline 30 nM; for YFP fluorescence quenching using Varenicline, 300 nM var: ligand Varenicline 300 nM; for YFP fluorescence quenching using Varenicline, 500 nM var: ligand Varenicline 500 nM; for YFP fluorescence quenching using Varenicline, 1 uM var: ligand Varenicline 1 uM
How it was run: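 Percent quench compares mean YFP signal over the final 10 s with the 15 s baseline before ligand, added in iodide-containing extracellular solution (pH 7.2). Cells were LX293T carrying a YFP anion reporter, transiently transfected with the channel construct; plates were preincubated 30 min at 37 °C.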

[1] = 1 nM CNL001, first column so headed
[2] = 1 nM CNL001, second column so headed
[3] = 10 nM CNL001, first column so headed
[4] = 10 nM CNL001, second column so headed
[5] = 50 nM CNL001, first column so headed
[6] = 50 nM CNL001, second column so headed
[7] = 100 nM CNL001, first column so headed
[8] = 100 nM CNL001, second column so headed
[9] = 1 uM CNL001, first column so headed
[10] = 1 uM CNL001, second column so headed

Row | Molecule | YFP fluorescence quenching using CNL001 (percent quench) [1] | YFP fluorescence quenching using CNL001 (percent quench) [2] | YFP fluorescence quenching using CNL001 (percent quench) [3] | YFP fluorescence quenching using CNL001 (percent quench) [4] | YFP fluorescence quenching using CNL001 (percent quench) [5] | YFP fluorescence quenching using CNL001 (percent quench) [6] | YFP fluorescence quenching using ABT-126 (percent quench) (50 nM abt (ABT-126)) | YFP fluorescence quenching using CNL001 (percent quench) [7] | YFP fluorescence quenching using CNL001 (percent quench) [8] | YFP fluorescence quenching (percent quench) (100 nM CNL002) | YFP fluorescence quenching using ABT-126 (percent quench) (100 nM abt (ABT-126)) | YFP fluorescence quenching using ABT-126 (percent quench) (300 nM abt (ABT-126)) | YFP fluorescence quenching using CNL001 (percent quench) [9] | YFP fluorescence quenching using CNL001 (percent quench) [10] | YFP fluorescence quenching (percent quench) (1 uM CNL002) | YFP fluorescence quenching using ABT-126 (percent quench) (1 uM abt (ABT-126)) | YFP fluorescence quenching using ABT-126 (percent quench) (10 uM abt (ABT-126)) | YFP fluorescence quenching (percent quench) (1 mM ach (acetylcholine)) | YFP fluorescence quenching (percent quench) (3 mM ach (acetylcholine)) | YFP fluorescence quenching using Varenicline, 3 nM var (first column) | further results
1 | B1 | 68.362% | 69.495% | 75.078% | 74.193% | 77.481% | 77.205% | −26.77% | 77% | 77.042% | 80.62% | −24.64% | −10.64% | 78.2% | 76.244% | 81.32% | 19.57% | 55.64% | 16.38% | 45.71% | −0.225 | YFP fluorescence quenching (percent quench) (10 uM ach (acetylcholine)): −36.89%; YFP fluorescence quenching (percent quench) (30 uM ach (acetylcholine)): −37.78%; YFP fluorescence quenching (percent quench) (100 uM ach (acetylcholine)): −25.67%; YFP fluorescence quenching (percent quench) (300 uM ach (acetylcholine)): −18.94%; YFP fluorescence quenching using Varenicline, 3 nM var (second column): −1.954; YFP fluorescence quenching using Varenicline, 30 nM var (first column): 1.269; YFP fluorescence quenching using Varenicline, 30 nM var (second column): 5.972; YFP fluorescence quenching using Varenicline, 300 nM var (first column): 6.84; YFP fluorescence quenching using Varenicline, 300 nM var (second column): 5.943; YFP fluorescence quenching using Varenicline, 500 nM var (first column): 8.717; YFP fluorescence quenching using Varenicline, 500 nM var (second column): 6.41; YFP fluorescence quenching using Varenicline, 1 uM var (first column): 5.635; YFP fluorescence quenching using Varenicline, 1 uM var (second column): 7.068
2 | B2 | 16.321% | 30.264% | 61.978% | 65.343% | 73.006% | 74.903% | 5.15% | 76% | 76.759% | 70.15% | 25.08% | 66.86% | 76.928% | 76.619% | 77.33% | 66.94% | 78.67% | −6.12% | 11.31% | 9.211 | YFP fluorescence quenching using Varenicline, 3 nM var (second column): 7.193; YFP fluorescence quenching using Varenicline, 30 nM var (first column): 7.821; YFP fluorescence quenching using Varenicline, 30 nM var (second column): 9.078; YFP fluorescence quenching using Varenicline, 300 nM var (first column): 6.933; YFP fluorescence quenching using Varenicline, 300 nM var (second column): 8.36; YFP fluorescence quenching using Varenicline, 500 nM var (first column): 5.501; YFP fluorescence quenching using Varenicline, 500 nM var (second column): 7.04; YFP fluorescence quenching using Varenicline, 1 uM var (first column): 7.174; YFP fluorescence quenching using Varenicline, 1 uM var (second column): 5.185
